US7164008B2, “Isolated complexes of endotoxin and MD-2” (priority 2003, dated 2007)

Test system: MD-2
Experiment: Formation of [^14C]-LOS-MD-2 complex monitored by gel filtration chromatography
Assay type: binding, human
Details: 30 min, 37° C., Sephacryl S100
Method: In FIG. 2, a bioactive complex (Mr˜25,000) containing MD-2 and [^14C]-LOS is formed by incubation of [^14C]-LOS-sCD14 with wt, but not C95Y, MD-2. In FIG. 2A, dialyzed control insect cell medium (◯) or medium containing wt (♦) or C95Y ( ? ) MD-2 was incubated for 30 min, 37° C. with (1:1 vol/vol) [^14C]-LOS-sCD14 in HBSS+, 10 mM HEPES and chromatographed on Sephacryl S100. Column fractions were analyzed for [^14C]-LOS. Identical results were obtained in analytical (5 ng [^14C]-LOS/ml+200 μl culture medium) or more preparative runs (reagents concentrated 20×). […] Cell activation was measured by IL-8 accumulation. […]
Purified [^14C]-LOSagg or [^14C]-LOS-sCD14 (3 ng LOS/ml)+/−indicated proteins (30 ng/ml LBP, 250 ng/ml sCD14, 60 μl culture medium) were incubated at 37° C. for 30 min. After this incubation, samples were analyzed by gel filtration chromatography to monitor formation of [^14C]-LOS-MD-2 and by incubation with HEK/TLR4 cells to measure cell activation.
Columns of Sephacryl HR S200 (1.6 cm×30 cm) or S100 (1.0 cm×60 cm) were pre-equilibrated in 10 mM HEPES, HBSS^++/−0.1% HSA. […] Aliquots of the collected fractions were analyzed by liquid scintillation spectroscopy using a Beckman LS liquid scintillation counter to detect [^14C]-LOS. […]

B1: wt MD-2: soluble polyhistidine-tagged recombinant wild-type MD-2 in conditioned insect cell culture medium (protein)
chain: QKQYWVCNSSDASISYTYCDKMQYPISINVNPCIELKRSKGLLHIFYIPRRDLKQLYFNLYITVNTMNLPKRKEVICRGSDDDYSFCRALKGETVNTTISFSFKGIKFSKGKYKCVVEAISGSPEEMLFCLEFVILHQPNSNHHHHHH
reaction with [^14C]-LOS-sCD14 to generate new Mr˜25,000 [^14C]-LOS-containing complex: efficiently generated
